By Km is commonly meant the concentration of substrate that gives half-maximal velocity. Usually Vmax stands for the rate approached at saturating substrate.

Series [1] deals with T1, Litchi sinensis LPAAT (LsLPAAT, pEW108), mutant of SEQ ID No 2 in the last C-terminal amino acids, SEQ ID No 1 (Litchi chinensis, UniProt A0A346D9Z1).
T1 construct: araBAD promoter, E. coli JC201 microsomes
Nature of the series: LPAAT assay, kinetic parameters with C18:1-CoA, E. coli JC201 microsomes. It is filed as biochemical. The settings on record: C18:1-CoA 0-50 μM, 10 min, 30° C., pH7.5, N = 4. From the text:
(§1) FIG. 1: Kinetics of phosphatidic acid synthesis using ^14C-C18:1-CoA on ^3H-LPA as substrates and Brassica napus (SEQ ID No 5) and Litchi microsomal (SEQ ID NO 1) LPAATs as enzymes. Duplicate measurements for one experiment are shown.
The inventors have identified one putative Lysophosphatidic Acid-Acyl Transferase from Lychee (SEQ ID No 2). They also have obtained a mutated protein derived from this protein, which is depicted as SEQ ID No 1.
Plasmids pEW108 and 117 comprising genes coding for SEQ ID No 1 and SEQ ID No 2 respectively under the control of the araBAD promoter (Guzman, L-M. et al. (1995) J Bacteriology 177: 4121-4130) were prepared and used to transform and complement an E. coli strain. The araBAD promoter is induced by arabinose, repressed by glucose and is used in the art to express polynucleotides in a controlled manner.
The following experiments were performed with the Escherichia coli JC201 mutant strain, which is temperature conditional in endogenous LPAAT activity and able to grow at 30° C. but not at 44° C. (genotype plsC, described in Coleman, 1990 J. Biol. Chem., 265 (28), 17215-21.). These bacteria were kept at −80° C. as 1 ml glycerol stocks. […] Optical density was measured at 600 nm and each flask was then cultivated for 6 hours at 30 and 44° C. respectively in order to check by optical density measurement that bacterial growth occurs at 30° C. but not at 44° C. […]

A short description of series [2]: LPAAT assay with C18:1-CoA as substrate (microsomes of transformed E. coli). In kind it is biochemical. The settings on record: expressed in transformed E. coli mutant strains; FIG. 1. On the procedure:
The ^3H-oleoyl-lysophosphatidic acid (^3HLPA, ref. NET1100; 600 μM, 28 mCi mmol^−1) and ^14C-Oleoyl-CoA (^14CC18:1-CoA, ref. NET651A; 300 μM, 11 mCi mmol^−1) radio-labeled substrates were purchased from Perkin Elmer. Assays were carried out in a final volume of 300 μl and contained Tris/HCl (100 mM, pH7.5), Triton X-100 (0.01% w/v), BSA (1 mg/ml), ascorbic acid (10 mM), EDTA (2 mM), 100 μl LPA and 50 μl acyl-CoA. The reaction was started by the addition of 30 μl of microsomes, and conducted in a glass vial placed in a Eppendorf Thermomixer-compact apparatus (30° C., 350 rpm). The reaction was stopped after incubation (from 0 to 120 min) by addition of 720 μl of chloroform/methanol (1:1). […]
(§2) Radioactivity measurement was performed in 10 mL Ultimagold (ref. 6013329, Perkin Elmer) using a liquid scintillation analyzer (Tri-Carb 2100TR, Packard) for determination of ^3H and ^14C separately.
A first LPAAT assay was performed as described above in order to determine optimal LPAAT activity using ^14CC18:1-CoA as substrate: • Effect of incubation time was tested for 0, 1, 3, 5, 10, 30, 60 and 120 min with 50 μM ^14CC18:1-CoA at 30° C. • In order to determine LPAAT kinetic parameters, the effect of C18:1-CoA concentration was tested as described above. […] For all experimental conditions, the mean of 2 values is calculated. […]

Substrate in series [3]: CCCCCCCC/C=C\CCCCCCCC(=O)SCCNC(=O)CCNC(=O)[C@H](O)C(C)(C)COP(=O)(O)OP(=O)(O)OC[C@H]1O[C@@H](n2cnc3c(N)ncnc32)[C@H](O)[C@@H]1OP(=O)(O)O
As to the kind of experiment: LPAAT assay, kinetic parameters with C18:1-CoA, E. coli JC201 microsomes. The settings on record: other: C18:1-CoA 0-50 μM, 10 min, 30° C., pH7.5, N = 3, pH 7.5. In kind it is biochemical, Brassica napus. On the procedure:
as §1
The following experiments were performed with the Escherichia coli JC201 mutant strain, which is temperature conditional in endogenous LPAAT activity and able to grow at 30° C. but not at 44° C. (genotype plsC, described in Coleman, 1990 J. Biol. Chem., 265 (28), 17215-21.). These bacteria were kept at −80° C. as 1 ml glycerol stocks. For E. coli JC201 transformation, one glycerol stock was diluted in 15 mL of Luria-Bertani (ref. L3022, Sigma) liquid medium and cultivated overnight at 30° C. Then, 1 mL was used to inoculate flasks containing 15 mL of fresh liquid LB medium. Optical density was measured at 600 nm and each flask was then cultivated for 6 hours at 30 and 44° C. respectively in order to check by optical density measurement that bacterial growth occurs at 30° C. but not at 44° C. One of the cultures obtained at 30° C. was then centrifuged at 4500 g/4° C. for 10 min. Supernatant was discarded and the pellet was kept on ice for 2 hours. The pellet was washed three time with 15 mL sterile distilled water and then twice with 15 mL distilled sterile water containing 10% (weight/volume) glycerol (centrifugation condition: 4500 g/4° C./10 min). […]

Series [4] can be described thus: Competitive LPAAT assay using C18:1-CoA and C19CA-CoA. It is filed as biochemical. How it is done: The ^3H-oleoyl-lysophosphatidic acid (^3HLPA, ref. NET1100; 600 μM, 28 mCi mmol^−1) and ^14C-Oleoyl-CoA (^14CC18:1-CoA, ref. NET651A; 300 μM, 11 mCi mmol^−1) radio-labeled substrates were purchased from Perkin Elmer. Assays were carried out in a final volume of 300 μl and contained Tris/HCl (100 mM, pH7.5), Triton X-100 (0.01% w/v), BSA (1 mg/ml), ascorbic acid (10 mM), EDTA (2 mM), 100 μl LPA and 50 μl acyl-CoA. The reaction was started by the addition of 30 μl of microsomes, and conducted in a glass vial placed in a Eppendorf Thermomixer-compact apparatus (30° C., 350 rpm). The reaction was stopped after incubation (from 0 to 120 min) by addition of 720 μl of chloroform/methanol (1:1). To separate the phases, 280 μl of 1M KCl in 0.2 M H3PO4 were added and the whole mixture was vortexed for 10 s before centrifugation at 1300 g, 5 min at room temperature. The upper aqueous phase was discarded and 2×25 μl of the remaining organic phase was spotted on to silica gel 60 ÅF254 TLC plates (ref. 1.05715, Merck) and developed in chloroform/methanol/NH4OH/water (65:25:0.9:3). The phosphatidic acid spot was visualized by iodine revelation and collected for scintillation counting.
as §2
[…] For all experimental conditions, data are derived from three experiments with 4 replicates each.
LPAAT selectivity for the two substrates is calculated as follows:
Selectivity for C18:1-CoA: S^C18:1-CoA=^14C/^3H
Selectivity for C19CA-CoA: S^C19:1CA-CoA=(^3H—^14C)/^3H
in which, ^3H and ^14C are the molar quantity of produced PA and the molar quantity of ^14C18:1 incorporated into this PA. These molar quantities are calculated from the corresponding ^3H and ^14C radioactivity levels measured in the phosphatidic acid spots scraped from TLC plates. Selectivity is expressed as the fraction of the specific fatty acid incorporated out of the total incorporated at the sn-2 position.

T1 sequence (A0A346D9Z1 entry or part of it, change not shown): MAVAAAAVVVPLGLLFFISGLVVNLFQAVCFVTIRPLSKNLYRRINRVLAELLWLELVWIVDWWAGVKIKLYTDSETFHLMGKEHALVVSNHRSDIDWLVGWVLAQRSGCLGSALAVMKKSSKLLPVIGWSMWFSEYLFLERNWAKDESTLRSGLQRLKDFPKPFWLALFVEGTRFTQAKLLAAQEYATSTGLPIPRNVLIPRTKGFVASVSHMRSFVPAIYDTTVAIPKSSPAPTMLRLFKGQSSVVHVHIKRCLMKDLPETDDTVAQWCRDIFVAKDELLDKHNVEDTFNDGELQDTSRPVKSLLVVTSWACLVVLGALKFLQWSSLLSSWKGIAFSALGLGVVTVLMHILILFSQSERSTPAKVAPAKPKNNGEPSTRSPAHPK

Take `CCCCCCCC/C=C\CCCCCCCC(=O)SCCNC(=O)CCNC(=O)[C@H](O)C(C)(C)COP(=O)(O)OP(=O)(O)OC[C@H]1O[C@@H](n2cnc3c(N)ncnc32)[C@H](O)[C@@H]1OP(=O)(O)O` [C18:1-CoA, Oleoyl-CoA]: the Michaelis-Menten constant (Km) in series [1] came out at 7.3 ± 4.1 µM. Besides, the maximum rate (Vmax) in series [1] (apparent Vmax, per mg total protein) is listed as 1557 ± 616 pmol · mg prot^−1 · min^−1.

B1: Brassica napus LPAAT (BnLPAAT, RAT1), SEQ ID No 5 (Brassica napus) (protein)
chain: MAMAAAVIVPLGILFFISGLVVNLLQAVCYVLVRPLSKNTYRKINRVVAETLWLELVWIVDWWAGVKIQVFADDETFNRMGKEHALVVCNHRSDIDWLVGWILAQRSGCLGSALAVMKKSSKFLPVIGWSMWFSEYLFLERNWAKDESTLKSGLQRLNDFPRPFWLALFVEGTRFTEAKLKAAQEYAASSELPVPRNVLIPRTKGFVSAVSNMRSFVPAIYDMTVAIPKTSPPPTMLRLFKGQPSVVHVHIKCHSMKDLPESEDEIAQWCRDQFVTKDALLDKHIAADTFAGQKEQNIGRPIKSLAVVLSWACLLTLGAMKFLHWSNLFSSWKGIALSALGLGIITLCMQILIRSSQSERSTPAKVAPAKPKDNHQSGPSSQTEVEEKQK
In the case of B1, the “esterification of 14C-C18:1-CoA on 3H-LPA (presence of PA in lipid fraction)” value in series [2] is “fully functional”. Also, in series [3], the Km turned out to be 10.6 ± 6.7 µM and the Vmax is 0.0056 µmol/min/mg. Further, in series [4] (competitive assays using C19CA-CoA and C18:1-CoA), the “use of C19CA-CoA as substrate” value is recorded as “can use C19CA-CoA as substrate”. The “selectivity for C19CA-CoA (in words)” value in series [4] (very little incorporation of 19:0CA up to 50 μM) is listed as “very low selectivity”.

The values are drawn from patent US20090271892A1, “LYSOPHOSPHATIDIC ACID ACYLTRANSFERASE GENES AND USES THEREOF” (priority 2006, published 2009).
